Our source for the Kd values is article doi:10.1101/2022.07.28.501822.

In the series the target is integrin beta1 (SinoBiological 10587-H08H1) (UniProt P05556 21-728). As to the kind of experiment: fluorescence polarization. (Polarisation of emitted light reports the rotation of a fluorescent probe.)
integrin beta1 (SinoBiological 10587-H08H1), sequence (P05556 21-728): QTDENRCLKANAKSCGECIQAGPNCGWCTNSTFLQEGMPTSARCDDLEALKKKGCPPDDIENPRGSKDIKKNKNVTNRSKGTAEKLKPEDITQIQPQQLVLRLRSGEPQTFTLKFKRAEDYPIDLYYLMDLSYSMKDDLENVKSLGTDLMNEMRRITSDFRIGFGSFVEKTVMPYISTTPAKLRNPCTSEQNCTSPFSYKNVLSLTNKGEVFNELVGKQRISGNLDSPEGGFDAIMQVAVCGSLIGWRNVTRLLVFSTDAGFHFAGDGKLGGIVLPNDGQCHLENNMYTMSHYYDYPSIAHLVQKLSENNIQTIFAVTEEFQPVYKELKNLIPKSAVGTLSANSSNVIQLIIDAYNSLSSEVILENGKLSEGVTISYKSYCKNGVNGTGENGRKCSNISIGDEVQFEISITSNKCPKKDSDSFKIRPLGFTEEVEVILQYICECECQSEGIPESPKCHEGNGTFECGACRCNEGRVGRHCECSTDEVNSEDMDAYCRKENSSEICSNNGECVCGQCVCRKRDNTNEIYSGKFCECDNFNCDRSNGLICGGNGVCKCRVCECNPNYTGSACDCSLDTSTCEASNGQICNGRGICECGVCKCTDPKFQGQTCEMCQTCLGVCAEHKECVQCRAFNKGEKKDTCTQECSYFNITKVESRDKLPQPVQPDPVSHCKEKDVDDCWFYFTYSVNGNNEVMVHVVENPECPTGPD

B1: FAM-GreenB1 (ssDNA)
DNA: ATCCAGAGTGACGCAGCATGGGGGTAGTGGTGGTTAGGAGTGGAGGCGAGGAGAGCGGTGGACACGGTGGCTTAGT
One may read the Kd as the free concentration of one partner at which half of the binding sites on the other are occupied at equilibrium, for simple one-to-one binding. Read a high Kd as lower affinity. B1: the dissociation constant (Kd) came out at 7 nM.
